Assay results from patent publication US20260258147A1 (Merck Sharp & Dohme, published 2026).
Substitutions are numbered along the chain they refer to.

T1: membrane-bound rhesus MSLN (Rhesus (Macaca mulatta))
T1 construct: The expressed construct is not described further; also called Rh MSLN-CHOK1; RhMSLN
T1 chain: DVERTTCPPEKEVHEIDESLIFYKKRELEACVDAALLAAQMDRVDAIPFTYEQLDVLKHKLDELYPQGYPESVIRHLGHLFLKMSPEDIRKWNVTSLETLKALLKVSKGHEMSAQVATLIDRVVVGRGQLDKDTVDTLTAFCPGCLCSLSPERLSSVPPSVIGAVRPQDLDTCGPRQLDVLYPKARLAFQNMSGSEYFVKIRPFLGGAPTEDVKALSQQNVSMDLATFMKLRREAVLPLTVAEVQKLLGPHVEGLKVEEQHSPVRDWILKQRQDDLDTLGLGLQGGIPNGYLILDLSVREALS

T2: soluble rhesus MSLN (87BIC) (Rhesus (Macaca mulatta))
T2 construct: Purified soluble protein coated on the ELISA plate; also called Rh MSLN (87BIC); purified rhesus MSLN
T2 chain: T1 chain

B1: SV017.47D7.1C2 (antibody, V domains shown)
VH: EVQLVESGGGLVQPGGSLRLSCAATGFTFSSYWMHWVRQGPGKGLVWVSRINSDGTSTVYADSVKGRFTISRDNAKNTLYLQMNSLRAEDTAVYYCARGRGIMTYWGQGTLVTVSS
VL: DIQMTQSPSSLSASVGDRVTITCRASQDIGSWLTWYQRKPEKAPKSLIYAASSLQSGVPSRFSGSGSGTDFTLTISSLQPEDFATYYCQQYKSYPLTFGQGAKLEIK
notes: also called antibody from hybridoma clone SV017.47D7.1C2
B2: SV017.51F4.1A1 (antibody, V domains shown)
VH: B1 VH
VL: B1 VL
notes: also called antibody from hybridoma clone SV017.51F4.1A1
B3: SV017.50G3.1B1 (antibody, V domains shown)
VH: B1 VH with G16E, Y80F
VL: B1 VL
notes: also called antibody from hybridoma clone SV017.50G3.1B1
B4: SV017.13B12.1E1 (antibody, V domains shown)
VH: B1 VH with Y80H
VL: B1 VL
notes: also called antibody from hybridoma clone SV017.13B12.1E1
B5: SV018.20B12.1D1 (antibody, V domains shown)
VH: QVQLQESGPGLVKPSETLSLTCTVSGGSISSYYWSWIRQPPGKGLEWIGYIYYSGSTNYNPSLKSRVTISVDTSKNQFSLKLSSVTAADTAVYYCARTGYIPMDVWGQGTTVTVSS
VL: EIVLTQSPDFQSVTPKEKVTITCRASQSIGSNLHWYQQKPDQSPKLLIKYVSQSFSGVPSRFSGSGSGTDFTLTINSLEAEDAATYYCHQSRSLPYTFGQGTKLEIK
notes: also called antibody from hybridoma clone SV018.20B12.1D1
B6: SV018.45B6.1G1 (antibody, V domains shown)
VH: QVQLLQSGAEVKKPGASVKVSCKASGYTFTTYGISWVRQAPGQGLEWLGWITAYNRNTNYAQKLQGRVTMTTDTSTSTSFMVLRSLRSDDTAVYYCARVGDSDAFDIWGQGTMVTVSS
VL: EIVMTQSPATLSLSPGERATLSCRTSQSVFNSFLSWYQQKPGQAPRLLLYGTSTRATGIPARFSGSGSGTDFTLTISSLQPEDFAVYYCQQDYKLPLTFGGGTKVEIK
notes: also called SV018.45.1G1

molecular target: T3, membrane-bound human MSLN (human, UniProt Q13421 296-598); test: cell ELISA, CHOK1 cells expressing human MSLN
T3 construct: the assay field says which; The construct expressed in CHOK1 is not described further; also called HuMSLN-CHOK1; human mesothelin on CHOK1 cells
Method: (§1) The wells of a 96-well plate are seeded with sufficient cells to provide 95-100% confluency on day 0 (the day of assay). On day 0 the culture medium is removed and 50 μL/well hybridoma supernatant fraction, or purified antibody starting at 10 μg/mL or equal molar concentration and serially diluted 4 or 5-fold in CHO medium (DMEM F12, 10% Bovine serum). The plate is then incubated for an hour at room temperature or a temperature up to 37° C. Next, about 50 μL of a pre-determined concentration of ligand is added to the wells of the plate and the plate incubated for 30 minutes at room temperature or a temperature up to 37° C. The plate wells are washed with ELISA wash (PBS containing 0.05% polysorbate 20. Next, 50 μL/well of HRP-conjugated anti-species IgG diluted 1:2000 in CHO medium is added to the wells and the plate incubated for an hour at room temperature or a temperature up to 37° C. HRP conjugated anti-species IgG include goat anti-mouse IgG-HRP (Southern Biotech, cat #1030-05), goat anti-rat IgG-HRP (Southern Biotech, cat #3030-05), and goat anti-human IgG-HRP (Jackson Immunologics, cat #109-036-098). The plate wells are washed with the ELISA wash. Next, 50 μL/well TMB substrate (1 step Ultra TMB-ELISA: Thermo Fisher, Cat #34029) is added to the wells. When the blank starts to turn blue, 50 μL/well TMB stop solution (KPL, Cat #50-85-06) is added to the wells and A450-A620 is measured on an ELISA reader.
(§2) The OVACAR3 cell line is a human ovarian cancer cell line that expresses high levels of human MSLN.

T3 sequence (Q13421 other isoform, or with tags, fused parts or gaps limits assumed): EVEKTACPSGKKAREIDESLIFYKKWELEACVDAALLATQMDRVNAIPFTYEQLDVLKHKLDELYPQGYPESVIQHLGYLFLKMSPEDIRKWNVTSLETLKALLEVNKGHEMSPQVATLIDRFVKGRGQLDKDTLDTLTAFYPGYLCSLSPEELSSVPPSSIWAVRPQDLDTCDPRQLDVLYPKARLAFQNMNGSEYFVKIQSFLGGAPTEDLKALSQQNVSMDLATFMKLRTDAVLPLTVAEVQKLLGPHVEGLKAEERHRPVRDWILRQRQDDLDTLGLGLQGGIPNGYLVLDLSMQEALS

EC50 | Binder
0.03 µg/mL | B1
0.04 µg/mL | B2
0.05 µg/mL | B3
0.02 µg/mL | B4
0.01 µg/mL | B5
0.01 µg/mL | B6

Molecular target: T1, membrane-bound rhesus MSLN
Test: cell ELISA, CHOK1 cells expressing rhesus MSLN
Method: as §1, §2

EC50 | binding result | Binder
0.26 µg/mL | – | B1
0.26 µg/mL | – | B2
0.33 µg/mL | – | B3
0.23 µg/mL | – | B4
– | no binding | B5
– | no binding | B6

molecular target: T3, membrane-bound human MSLN; test: cell ELISA, OVCAR3 cells (endogenous human MSLN)

EC50 | Binder
0.01 µg/mL | B1
0.01 µg/mL | B2
0.01 µg/mL | B3
0.01 µg/mL | B4
0.01 µg/mL | B5

molecular target: T4, soluble human MSLN (87BGR) (human, UniProt Q13421 296-598); test: protein ELISA, coated soluble human MSLN (87BGR)
T4 construct: Purified soluble protein coated on the ELISA plate; also called HuMSLN (87BGR); purified human MSLN
Method: (§3) The wells of a 96-well plate are coated with 50 μL of purified human or rhesus MSLN in a carbonate coating buffer (5.3 g NaHCO₃ and 3.2 g Na₂CO₃ in 2 L H₂0) or HyClone Dulbecco's phosphate buffered saline (DPBS; Hyclone, cat #SH30028.02) at a concentration of 1-2 μg/mL and incubated overnight at 4° C. Afterwards, the plate wells are washed with well wash solution (phosphate buffered saline containing 0.05% polysorbate 20). The plate wells are then blocked by adding Super Block Blocking Buffer T20 (Thermo Scientific, #37536) for 1-2 hours at room temperature followed by washing with well wash solution. Next, 50 μL/well hybridoma supernatant fraction (used neat), or purified antibody starting at 10 μg/mL and serially diluted 4- or 5-fold in ELISA buffer (DPBS+0.1% BSA+0.05% polysorbate 20 is added to the wells. The plates are incubated for an hour at room temperature, then the wells washed with well wash solution and 50 μL/well horseradish […] (HRP) conjugated anti-species IgG diluted 1:3000-5000 in ELISA buffer is added to the wells. HRP conjugated anti-species IgG include goat anti-mouse IgG-HRP (Southern Biotech, cat #1030-05), goat anti-rat IgG-HRP (Southern Biotech, cat #3030-05), and goat anti-human IgG-HRP (Jackson Immunologics, cat #109-036-098). The plates are incubated for an hour at room temperature, then the wells washed with well wash and 50 μL/well ABTS Peroxidase Substrate (Kirkgaard & Perry Laboratories) is added to the wells. After 10 minutes the OD at 405 nm is measured using an ELISA plate reader.
as §2

T4 sequence (Q13421 other isoform, or with tags, fused parts or gaps limits assumed, form in doubt): as the sequence (Q13421 other isoform, or with tags, fused parts or gaps limits assumed) above

EC50 | Binder
0.03 µg/mL | B1
0.03 µg/mL | B2
0.04 µg/mL | B3
0.04 µg/mL | B4
0.11 µg/mL | B5
1.37 µg/mL | B6

Molecular target: T2, soluble rhesus MSLN (87BIC)
Test: protein ELISA, coated soluble rhesus MSLN (87BIC)
Method: as §3, §2

EC50 | Binder
0.01 µg/mL | B1
0.02 µg/mL | B2
0.02 µg/mL | B3
0.02 µg/mL | B4
